Legend:
Assay in all cases: competitive ELISA against the biotin-labeled SEQ ID NO: 2 peptide
[1] = biological target: T1, MMP13-undigested human type I collagen (human, UniProt P02452 162-1218; P08123 80-1119)
T1 construct: The chain composition comes from general knowledge; also called non-digested collagen (type I)
Procedure: (§1) To 10 μg/10 μl of a solution of human type I, type II, or type III collagen (Chondrex), 10 μl of 2 × enzyme reaction buffer (50 mM Tris buffer, pH 7.6, containing 0.3 M NaCl, 10 mM CaCl₂, and 0.005% Brij35) was added for neutralization. To the solution, 0.2 μg of activated human MMP13 (human Pro-MMP13 (Calbiochem), activated by incubation with 1 mM APMA at 37° C. for 2 hours), and the mixture was allowed to react overnight at 37° C. Subsequently, stop solution (EDTA, final concentration 5 mM) was added to prepare the natural type neoepitope solution.
(§2) To a 384-well microtiter plate (Nunc), 35 μl of Tris buffer (50 mM Tris-HCl, pH7.5) containing 0.35 μg of anti-mouse IgG-Fc antibody (Jackson Immuno Research) was added and incubated overnight at 4° C. for adsorption. Each well was washed once with 90 μl of washing solution (physiological saline containing 0.01% Tween20), and then 0.1 ml of Block Ace (Dainippon pharmaceuticals) was added. The plate was allowed to stand for 2 hours at room temperature for blocking (an anti-mouse IgG antibody-solid-phased plate). After each well was washed once with 90 μl of the washing solution, 10 μl of buffer A containing 6.4-250 nM of the natural type neoepitope solution was mixed with 10 μl of buffer A containing 1 ng/ml of the biotin-labeled neoepitope peptide (SEQ ID NO: 2) and 200 ng/ml of Streptavidin-HRP, and 10 μl of buffer A containing 15 ng/ml of the anti-neoepitope antibody (20A10). Then the mixture was allowed to react at 4° C. for 16 hours.
(§3) Subsequently, each well was washed three times with 90 μl of the washing solution, and 25 μl of TMB-Substrate Chromogen (DAKO) was added and incubated for 30 minutes at room temperature for color development, followed by the addition of 25 μl of 0.05 M sulfuric acid to terminate the reaction. Then, the absorbance at 450 nm was measured.

[2] = biological target: T2, MMP13-undigested human type III collagen (human, UniProt P02461 154-1221)
T2 construct: also called non-digested collagen (type III)
T2 sequence (looked up): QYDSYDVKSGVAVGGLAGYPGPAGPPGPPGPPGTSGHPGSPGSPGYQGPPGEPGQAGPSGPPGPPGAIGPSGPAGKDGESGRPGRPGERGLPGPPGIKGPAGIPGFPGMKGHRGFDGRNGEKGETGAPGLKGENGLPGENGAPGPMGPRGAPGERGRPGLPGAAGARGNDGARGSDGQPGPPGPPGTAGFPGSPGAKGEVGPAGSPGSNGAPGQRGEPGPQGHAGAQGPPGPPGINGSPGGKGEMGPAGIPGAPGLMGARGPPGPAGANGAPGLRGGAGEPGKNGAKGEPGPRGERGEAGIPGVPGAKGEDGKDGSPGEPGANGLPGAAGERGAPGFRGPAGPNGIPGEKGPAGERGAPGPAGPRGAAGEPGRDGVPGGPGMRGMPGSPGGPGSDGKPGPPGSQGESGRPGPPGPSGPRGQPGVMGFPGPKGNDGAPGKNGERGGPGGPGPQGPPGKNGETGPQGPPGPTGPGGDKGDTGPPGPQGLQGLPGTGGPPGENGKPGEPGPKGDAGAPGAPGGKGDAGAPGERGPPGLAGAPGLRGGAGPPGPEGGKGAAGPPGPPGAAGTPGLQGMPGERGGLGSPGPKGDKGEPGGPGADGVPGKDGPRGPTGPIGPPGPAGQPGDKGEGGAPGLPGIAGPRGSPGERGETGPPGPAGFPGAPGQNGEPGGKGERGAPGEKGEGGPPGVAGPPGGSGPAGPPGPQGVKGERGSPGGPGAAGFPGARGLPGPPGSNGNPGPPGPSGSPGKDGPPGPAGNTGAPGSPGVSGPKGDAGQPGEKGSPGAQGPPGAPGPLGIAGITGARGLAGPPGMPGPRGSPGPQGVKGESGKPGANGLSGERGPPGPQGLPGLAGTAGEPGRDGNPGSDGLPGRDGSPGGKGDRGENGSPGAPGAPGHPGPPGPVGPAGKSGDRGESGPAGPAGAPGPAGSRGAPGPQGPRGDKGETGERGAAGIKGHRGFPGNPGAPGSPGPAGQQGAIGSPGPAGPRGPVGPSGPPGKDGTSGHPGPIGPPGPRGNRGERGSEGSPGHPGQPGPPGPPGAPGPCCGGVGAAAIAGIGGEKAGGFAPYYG
Procedure: as §1, §2, §3

[3] = biological target: T3, MMP13-undigested human type II collagen (human, UniProt P02458 182-1241, limits assumed)
T3 construct: Triple helix of three chains; also called native type II collagen; non-digested collagen (type II)
Procedure: as §1, §2, §3

Measured: binding result

T1 sequence (P02452 162-1218, chain 1 of 2): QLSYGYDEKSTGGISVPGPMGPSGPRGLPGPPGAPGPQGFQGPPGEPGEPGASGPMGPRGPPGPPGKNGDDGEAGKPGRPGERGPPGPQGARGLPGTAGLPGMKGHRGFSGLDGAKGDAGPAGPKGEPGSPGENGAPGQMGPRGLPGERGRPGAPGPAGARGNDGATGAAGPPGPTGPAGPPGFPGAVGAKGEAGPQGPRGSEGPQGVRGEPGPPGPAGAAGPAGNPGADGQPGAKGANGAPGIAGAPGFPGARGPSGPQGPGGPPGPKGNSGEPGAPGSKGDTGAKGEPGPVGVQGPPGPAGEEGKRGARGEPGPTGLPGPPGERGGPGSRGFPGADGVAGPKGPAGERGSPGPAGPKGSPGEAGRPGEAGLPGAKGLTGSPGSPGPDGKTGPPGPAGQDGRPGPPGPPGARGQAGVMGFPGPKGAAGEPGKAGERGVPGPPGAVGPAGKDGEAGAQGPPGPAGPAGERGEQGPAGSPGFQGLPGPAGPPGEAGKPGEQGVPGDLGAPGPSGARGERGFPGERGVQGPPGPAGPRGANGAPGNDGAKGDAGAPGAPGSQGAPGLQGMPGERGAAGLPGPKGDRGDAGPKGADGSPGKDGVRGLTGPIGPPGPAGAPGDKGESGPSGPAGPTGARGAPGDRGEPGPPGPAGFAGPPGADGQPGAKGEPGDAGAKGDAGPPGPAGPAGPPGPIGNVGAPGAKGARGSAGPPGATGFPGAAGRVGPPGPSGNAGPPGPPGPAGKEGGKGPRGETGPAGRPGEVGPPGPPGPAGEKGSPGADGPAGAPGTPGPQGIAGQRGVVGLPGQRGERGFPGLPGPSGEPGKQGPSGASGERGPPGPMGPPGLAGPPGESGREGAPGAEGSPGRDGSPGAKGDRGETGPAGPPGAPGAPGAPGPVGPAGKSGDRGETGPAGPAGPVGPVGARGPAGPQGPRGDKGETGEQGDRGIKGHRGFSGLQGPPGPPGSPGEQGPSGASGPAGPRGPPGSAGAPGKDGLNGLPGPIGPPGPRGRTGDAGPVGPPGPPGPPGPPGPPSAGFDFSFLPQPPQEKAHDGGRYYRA
T1 sequence (P08123 80-1119, chain 2 of 2): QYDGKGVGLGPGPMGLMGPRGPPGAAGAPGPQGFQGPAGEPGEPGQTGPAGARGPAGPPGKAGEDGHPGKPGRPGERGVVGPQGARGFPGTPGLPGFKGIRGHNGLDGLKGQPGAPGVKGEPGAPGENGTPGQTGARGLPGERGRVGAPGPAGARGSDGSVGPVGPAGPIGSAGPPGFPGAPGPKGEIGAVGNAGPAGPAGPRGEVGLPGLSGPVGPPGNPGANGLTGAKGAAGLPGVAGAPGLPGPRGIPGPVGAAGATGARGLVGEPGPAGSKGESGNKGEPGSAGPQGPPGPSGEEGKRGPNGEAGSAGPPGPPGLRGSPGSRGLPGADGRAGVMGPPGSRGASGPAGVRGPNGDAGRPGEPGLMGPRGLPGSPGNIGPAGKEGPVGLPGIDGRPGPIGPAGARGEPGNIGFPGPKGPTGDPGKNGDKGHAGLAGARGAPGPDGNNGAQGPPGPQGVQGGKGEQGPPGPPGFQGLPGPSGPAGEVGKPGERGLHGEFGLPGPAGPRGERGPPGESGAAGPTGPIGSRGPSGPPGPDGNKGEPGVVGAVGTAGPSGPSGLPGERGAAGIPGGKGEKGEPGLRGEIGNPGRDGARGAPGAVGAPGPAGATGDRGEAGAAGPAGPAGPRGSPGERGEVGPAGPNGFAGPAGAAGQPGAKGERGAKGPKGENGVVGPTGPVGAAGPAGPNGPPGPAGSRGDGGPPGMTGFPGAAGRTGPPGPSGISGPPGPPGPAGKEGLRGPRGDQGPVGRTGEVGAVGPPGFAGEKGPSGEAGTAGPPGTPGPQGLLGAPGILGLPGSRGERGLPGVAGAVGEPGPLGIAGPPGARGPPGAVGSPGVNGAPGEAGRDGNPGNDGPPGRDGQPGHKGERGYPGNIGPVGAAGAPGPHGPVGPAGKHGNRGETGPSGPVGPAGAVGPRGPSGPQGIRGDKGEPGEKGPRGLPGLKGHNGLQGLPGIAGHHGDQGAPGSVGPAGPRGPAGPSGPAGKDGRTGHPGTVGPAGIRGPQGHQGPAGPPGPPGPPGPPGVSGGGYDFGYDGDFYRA
T3 sequence (P02458 182-1241 limits assumed): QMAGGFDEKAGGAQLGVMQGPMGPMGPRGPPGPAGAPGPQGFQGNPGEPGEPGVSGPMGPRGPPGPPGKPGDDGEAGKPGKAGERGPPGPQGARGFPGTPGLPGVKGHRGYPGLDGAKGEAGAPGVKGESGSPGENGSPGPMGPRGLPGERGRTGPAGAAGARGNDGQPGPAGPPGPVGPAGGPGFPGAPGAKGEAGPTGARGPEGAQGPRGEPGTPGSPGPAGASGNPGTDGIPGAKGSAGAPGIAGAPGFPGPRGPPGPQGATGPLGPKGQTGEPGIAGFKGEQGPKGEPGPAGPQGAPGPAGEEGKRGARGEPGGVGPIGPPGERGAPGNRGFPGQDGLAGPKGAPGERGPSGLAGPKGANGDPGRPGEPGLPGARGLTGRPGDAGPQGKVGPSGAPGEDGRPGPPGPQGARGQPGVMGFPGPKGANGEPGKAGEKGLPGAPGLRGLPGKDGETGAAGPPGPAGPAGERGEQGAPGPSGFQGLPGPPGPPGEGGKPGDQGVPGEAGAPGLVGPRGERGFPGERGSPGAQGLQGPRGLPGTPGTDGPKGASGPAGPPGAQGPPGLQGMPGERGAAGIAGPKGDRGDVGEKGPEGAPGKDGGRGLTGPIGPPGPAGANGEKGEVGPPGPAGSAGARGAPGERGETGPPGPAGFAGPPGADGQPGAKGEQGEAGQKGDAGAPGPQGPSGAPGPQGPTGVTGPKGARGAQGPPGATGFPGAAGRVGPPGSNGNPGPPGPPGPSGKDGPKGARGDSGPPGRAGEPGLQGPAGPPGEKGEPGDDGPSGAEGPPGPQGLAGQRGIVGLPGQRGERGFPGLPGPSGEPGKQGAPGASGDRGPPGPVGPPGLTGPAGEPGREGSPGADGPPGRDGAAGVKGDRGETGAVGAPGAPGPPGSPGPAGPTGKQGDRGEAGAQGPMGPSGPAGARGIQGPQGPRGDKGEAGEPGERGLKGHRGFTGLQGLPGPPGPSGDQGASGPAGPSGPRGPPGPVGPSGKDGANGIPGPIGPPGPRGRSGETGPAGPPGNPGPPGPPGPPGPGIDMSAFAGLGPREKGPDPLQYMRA

B1: anti-neoepitope antibody 20A10 (antibody, IgG1, V domains shown)
VH: QIQLVQSGPELKEPGETVRISCKASGYTFTKYGINWVKQAPGKGLEWMAWINTYSGMTTYADDFKGRFAFSLETSANTAYLQINHLKNDDTATYFCARSLGYDYGGFAYWGQGTLVTVSA
VL: DVLLTQTPLSLPVSLGDQAFISCRSGQTLVHDNENTYFHWYLQKPGQSPKLLIYKISNRFSGVPDRFSGSGSGTDFTLKISRVEPEDLGIYFCSQNTHVPFTFGSGTKLEIKR
notes: also called HRP-labeled 20A10
no binding: [1] | [2] | [3]
